Reference: patent US20110104715

T1: Full-length APLP1 (APP-like protein 1), P51693
T1 chain: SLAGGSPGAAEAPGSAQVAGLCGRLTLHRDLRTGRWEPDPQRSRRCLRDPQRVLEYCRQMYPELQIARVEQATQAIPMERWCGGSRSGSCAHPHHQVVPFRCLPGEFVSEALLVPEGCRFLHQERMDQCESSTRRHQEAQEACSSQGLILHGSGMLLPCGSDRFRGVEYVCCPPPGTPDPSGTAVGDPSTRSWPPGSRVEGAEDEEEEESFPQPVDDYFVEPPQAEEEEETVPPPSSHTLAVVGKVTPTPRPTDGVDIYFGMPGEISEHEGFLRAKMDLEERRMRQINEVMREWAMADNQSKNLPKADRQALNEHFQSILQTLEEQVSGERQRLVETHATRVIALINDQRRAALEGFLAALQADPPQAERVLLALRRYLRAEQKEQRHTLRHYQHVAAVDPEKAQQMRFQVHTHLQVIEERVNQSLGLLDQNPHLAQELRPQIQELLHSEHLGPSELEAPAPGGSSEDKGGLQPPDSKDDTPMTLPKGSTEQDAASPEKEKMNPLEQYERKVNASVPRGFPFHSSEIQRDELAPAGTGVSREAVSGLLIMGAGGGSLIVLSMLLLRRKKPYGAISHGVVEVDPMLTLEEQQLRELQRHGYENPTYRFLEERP


Assays:
[1] = molecular target: T1, Full-length APLP1 (APP-like protein 1), …
[2] = molecular target: Full-length APLP2 (APP-like protein 2), Q06481
Sequence of Full-length APLP2 (APP-like protein 2), Q06481 (Q06481 32-763): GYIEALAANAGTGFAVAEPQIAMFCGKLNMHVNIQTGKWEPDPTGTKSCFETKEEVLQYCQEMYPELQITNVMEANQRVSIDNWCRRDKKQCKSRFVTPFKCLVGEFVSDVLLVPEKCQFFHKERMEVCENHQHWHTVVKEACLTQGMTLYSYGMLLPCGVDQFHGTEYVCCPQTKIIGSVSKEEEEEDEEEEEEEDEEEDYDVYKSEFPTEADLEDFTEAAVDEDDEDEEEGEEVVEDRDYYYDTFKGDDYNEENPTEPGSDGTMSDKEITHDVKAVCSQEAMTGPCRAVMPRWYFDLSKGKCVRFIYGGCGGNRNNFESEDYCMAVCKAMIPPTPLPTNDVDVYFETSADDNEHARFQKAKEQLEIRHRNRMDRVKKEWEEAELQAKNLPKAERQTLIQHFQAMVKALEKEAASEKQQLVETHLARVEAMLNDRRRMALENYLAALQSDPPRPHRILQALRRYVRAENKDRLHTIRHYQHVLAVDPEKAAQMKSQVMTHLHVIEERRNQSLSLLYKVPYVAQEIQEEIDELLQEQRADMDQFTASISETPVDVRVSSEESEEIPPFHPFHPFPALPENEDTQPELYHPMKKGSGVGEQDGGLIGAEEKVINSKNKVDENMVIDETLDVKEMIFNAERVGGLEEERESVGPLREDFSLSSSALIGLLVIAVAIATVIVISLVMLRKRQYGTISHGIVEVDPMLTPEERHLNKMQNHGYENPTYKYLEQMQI

[3] = molecular target: APP-C125 (C-terminal 125 amino acids of APP695), P05067
[4] = molecular target: Wild-type human APP695 (β-amyloid precursor protein), P05067
[5] = molecular target: APP D664A mutant (APP695), P05067

Protein	generation of an APP-Neo-immunoreactive epitope by recombinant caspase in vitro [1]	in vitro cleavage of 35S-labelled in vitro transcribed/translated protein [1]	generation of an APP-Neo-immunoreactive epitope by recombinant caspase in vitro [2]	in vitro cleavage of 35S-labelled in vitro transcribed/translated protein [2]	in vitro caspase cleavage [3]	generation of an APP-Neo-immunoreactive epitope by recombinant caspase in vitro [4]	in vitro cleavage of 35S-labelled in vitro transcribed/translated protein [4]	generation of an APP-Neo-immunoreactive epitope by recombinant caspase in vitro [5]
Recombinant caspase-3 (protein) SGISLDNSYKMDYPEMGLCIIINNKNFHKSTGMTSRSGTDVDAANLRETFRNLKYEVRNKNDLTREEIVELMRDVSKEDHSKRSSFVCVLLSHGEEGIIFGTNGPVDLKKITNFFRGDRCRSLTGKPKLFIIQACRGTELDCGIETDSGVDDDMACHKIPVEADFLYAYSTAPGYYSWRNSKDGSWFIQSLCAMLKQYADKLEFMHILTRVNRKVATEFESFSFDATFHAKKQIPCIVSMLTKELYFYH	in vitro transcribed/translated APLP1 and APLP2 yielded APP-Neo immunoreactive cleavage products only when incubated in the presence of recombinant caspase-3	APLP1, on the other hand, was cleaved in vitro only by caspase-3, not by caspase-6 or -8	in vitro transcribed/translated APLP1 and APLP2 yielded APP-Neo immunoreactive cleavage products only when incubated in the presence of recombinant caspase-3	APLP2 may be cleaved in vitro by caspase-3 only, but with very low efficiency, if at all	caspases-3, -6 and -8 are capable of cleaving APP	an APP-Neo-immunoreactive epitope was detected in immunoblots of in vitro transcribed/translated full length APP that had been incubated in the presence of recombinant caspase-3, but not caspase-7 or -8	APP can be cleaved by caspases-3 and -6, but not by caspase-8	–
Recombinant caspase-6 (protein) AFYKREMFDPAEKYKMDHRRRGIALIFNHERFFWHLTLPERRGTCADRDNLTRRFSDLGFEVKCFNDLKAEELLLKIHEVSTVSHADADCFVCVFLSHGEGNHIYAYDAKIEIQTLTGLFKGDKCHSLVGKPKIFIIQACRGNQHDVPVIPLDVVDNQTEKLDTNITEVDAASVYTLPAGADFLMCYSVAEGYYSHRETVNGSWYIQDLCEMLGKYGSSLEFTELLTLVNRKVSQRRVDFCKDPSAIGKKQVPCFASMLTKKLHFFPKSN	–	APLP1, on the other hand, was cleaved in vitro only by caspase-3, not by caspase-6 or -8	–	Like APLP1, APLP2 may be cleaved in vitro by caspase-3 only, but with very low efficiency, if at all	caspases-3, -6 and -8 are capable of cleaving APP	–	APP can be cleaved by caspases-3 and -6, but not by caspase-8	–
Recombinant caspase-8 (protein) SESQTLDKVYQMKSKPRGYCLIINNHNFAKAREKVPKLHSIRDRNGTHLDAGALTTTFEELHFEIKPHDDCTVEQIYEILKIYQLMDHSNMDCFICCILSHGDKGIIYGTDGQEAPIYELTSQFTGLKCPSLAGKPKVFFIQACQGDNYQKGIPVETDSEEQPYLEMDLSSPQTRYIPDEADFLLGMATVNNCVSYRNPAEGTWYIQSLCQSLRERCPRGDDILTILTEVNYEVSNKDDKKNMGKQMPQPTFTLRKKLVFPSD	–	APLP1, on the other hand, was cleaved in vitro only by caspase-3, not by caspase-6 or -8	–	Like APLP1, APLP2 may be cleaved in vitro by caspase-3 only, but with very low efficiency, if at all	caspases-3, -6 and -8 are capable of cleaving APP	an APP-Neo-immunoreactive epitope was detected in immunoblots of in vitro transcribed/translated full length APP that had been incubated in the presence of recombinant caspase-3, but not caspase-7 or -8	APP can be cleaved by caspases-3 and -6, but not by caspase-8	APPD664A, did not yield detectable APP-Neo immunoreactive products after incubation with recombinant caspase-3, -7 or -8
Recombinant caspase-7 (protein) AKPDRSSFVPSLFSKKKKNVTMRSIKTTRDRVPTYQYNMNFEKLGKCIIINNKNFDKVTGMGVRNGTDKDAEALFKCFRSLGFDVIVYNDCSCAKMQDLLKKASEEDHTNAACFACILLSHGEENVIYGKDGVTPIKDLTAHFRGDRCKTLLEKPKLFFIQACRGTELDDGIQADSGPINDTDANPRYKIPVEADFLFAYSTVPGYYSWRSPGRGSWFVQALCSILEEHGKDLEIMQILTRVNDRVARHFESQSDDPHFHEKKQIPCVVSMLTKELYFSQ	–	–	–	–	–	an APP-Neo-immunoreactive epitope was detected in immunoblots of in vitro transcribed/translated full length APP that had been incubated in the presence of recombinant caspase-3, but not caspase-7 or -8	–	–
